{
  "source": "patent US20250215105A1",
  "about": "“ANTI-CD39 ANTIBODY” (BrightPath Biotherapeutics Co., Ltd., priority 2022, published 2025)",
  "biological_target": "FcγRIIIa (Human) (UniProt P08637)",
  "sequence (P08637 17-208 F176V)": "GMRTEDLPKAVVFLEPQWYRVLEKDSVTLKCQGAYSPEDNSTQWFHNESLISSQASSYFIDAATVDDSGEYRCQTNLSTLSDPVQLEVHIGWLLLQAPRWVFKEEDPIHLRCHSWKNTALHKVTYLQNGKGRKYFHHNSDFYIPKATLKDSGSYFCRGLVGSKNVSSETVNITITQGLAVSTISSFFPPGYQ",
  "experiment": "SPR",
  "data": [
    {"substance": "Mogamulizumab", "values": [
      {"measurement": "Kd", "value": 156, "unit": "nM"}
    ]}
  ]
}
